Measurements published in patent US20250340641A1 (KYMAB, published 2025).
One block for each binder: values may come before it.

Columns and labels:
[1] = target: T1, human ICOS expressed on the surface of cells (human, UniProt Q9Y6W8 21-199); assay: flow cytometry on CHO-S cells, purified IgG1
T1 construct: also called hICOS; Human ICOS CHO
T1 sequence: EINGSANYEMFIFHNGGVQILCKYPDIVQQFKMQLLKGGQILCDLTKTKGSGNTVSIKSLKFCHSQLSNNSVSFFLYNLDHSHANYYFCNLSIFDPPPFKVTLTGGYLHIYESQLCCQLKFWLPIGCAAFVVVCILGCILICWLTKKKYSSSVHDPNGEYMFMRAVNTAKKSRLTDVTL

[2] = target: T2, mouse ICOS expressed on the surface of CHO-S cells (mouse, UniProt Q9WVS0 21-200); assay: flow cytometry on CHO-S cells, purified IgG1
T2 construct: whole, on cells; also called mICOS; Mouse ICOS CHO
T2 sequence (looked up): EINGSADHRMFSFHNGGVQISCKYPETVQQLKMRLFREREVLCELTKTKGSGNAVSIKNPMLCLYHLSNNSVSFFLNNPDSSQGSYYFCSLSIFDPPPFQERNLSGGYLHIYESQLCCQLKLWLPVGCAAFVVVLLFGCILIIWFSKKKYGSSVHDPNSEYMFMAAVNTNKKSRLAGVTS

fold above the average of geomean of the negative control [1]: > 10 fold
fold above the average of geomean of the negative control [2]: > 10 fold
B1: CL-61091 (antibody, V domains shown)
VH: QVQLMQSGTEVKKPGASVKVSCKTSGYTFTTYGITWVRQAPGQGLEWMGWISAYSGDTDYAQKFQGRVTVTTDTSTNTAYMELRSLKSDDTAVYYCARSSGWPHHYGMDVWGQGTTVTVSS
VL: DIVMTQSPLSLPVTPGEPASISCRSSQSLLHSNGFNYFDWYLQKPGQSPQLLIFLVSNRASGVPDRFSGSGSGTDFTLKISRVEAEDVGIYYCMQALQTPLTFGGGTKVEIK

fold above the average of geomean of the negative control [1]: > 10 fold
fold above the average of geomean of the negative control [2]: > 10 fold
B2: CL-74570 (antibody, V domains shown)
VH: EVQLVESGGGVIRPGGSLRLSCAASGFTFDDYGMSWVRQAPGKGLEWVSGINWIGDNTDYADSVKGRFTISRDNAKNSLYLQMNSLRAEDTALYYCARDYFGSGSYYNVPF
VL: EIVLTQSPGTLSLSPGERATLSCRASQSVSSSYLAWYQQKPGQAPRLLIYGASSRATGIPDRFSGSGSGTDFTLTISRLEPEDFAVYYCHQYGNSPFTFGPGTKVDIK
